Data set [1] addresses NtNBCe1-A (cytoplasmic N-terminal domain of the electrogenic Na/HCO3 cotransporter NBCe1-A, SLC4A4) (UniProt Q9Y6R1). As to the kind of experiment: Dynamic light scattering (DLS), batch mode. The note with it: pH slightly acidic (6.5 by the Figure 1 caption and Discussion); 150 mM NaCl; 50mM Tris at every pH.
In data set [2] the target is NtNBCe1-A (cytoplasmic N-terminal domain of the electrogenic Na/HCO3 cotransporter NBCe1-A, SLC4A4) (UniProt Q9Y6R1+Q9Y6R1). As to the kind of experiment: Dynamic light scattering (DLS), batch mode. The following applies: pH 7.4; 150 mM NaCl; 50mM Tris at every pH.
The target in data set [3] is NtNBCe1-A (cytoplasmic N-terminal domain of the electrogenic Na/HCO3 cotransporter NBCe1-A, SLC4A4) (UniProt Q9Y6R1). As to the kind of experiment: Size-exclusion chromatography with multi-angle light scattering and refractive index detection (MALS-SEC). The following applies: pH 11.5; 150mM NaCl; 50mM Tris at every pH analysed. Background: Size exclusion chromatography separates by hydrodynamic size, large species first.

Data set [4] concerns the molecule itself. Put plainly: SEC-MALS; neutral pH, 0 mM against 10 mM bisulfite.
Data set [5] deals with the molecule itself. As to the kind of experiment: SEC-MALS; ~2 mg/ml (0.5 ml) on Superdex-200 HR 10/30; 50 mM Tris, 150 mM NaCl, 1 mM TCEP; neutral pH; monomer to dimer.

The text below walks through data of article PMC3474958, “pH-sensitive Self-associations of the N-terminal Domain of NBCe1-A Suggest a Compact Conformation under Acidic Intracellular Conditions” (Protein and Peptide Letters, 2012).

For orientation: stoichiometry N means a count of units in the complex or per binding partner.

Chain of NtNBCe1-A (cytoplasmic N-terminal domain of the electrogenic Na/HCO3 cotransporter NBCe1-A, SLC4A4) (UniProt Q9Y6R1) (Q9Y6R1 whole entry, the tested form may be a part): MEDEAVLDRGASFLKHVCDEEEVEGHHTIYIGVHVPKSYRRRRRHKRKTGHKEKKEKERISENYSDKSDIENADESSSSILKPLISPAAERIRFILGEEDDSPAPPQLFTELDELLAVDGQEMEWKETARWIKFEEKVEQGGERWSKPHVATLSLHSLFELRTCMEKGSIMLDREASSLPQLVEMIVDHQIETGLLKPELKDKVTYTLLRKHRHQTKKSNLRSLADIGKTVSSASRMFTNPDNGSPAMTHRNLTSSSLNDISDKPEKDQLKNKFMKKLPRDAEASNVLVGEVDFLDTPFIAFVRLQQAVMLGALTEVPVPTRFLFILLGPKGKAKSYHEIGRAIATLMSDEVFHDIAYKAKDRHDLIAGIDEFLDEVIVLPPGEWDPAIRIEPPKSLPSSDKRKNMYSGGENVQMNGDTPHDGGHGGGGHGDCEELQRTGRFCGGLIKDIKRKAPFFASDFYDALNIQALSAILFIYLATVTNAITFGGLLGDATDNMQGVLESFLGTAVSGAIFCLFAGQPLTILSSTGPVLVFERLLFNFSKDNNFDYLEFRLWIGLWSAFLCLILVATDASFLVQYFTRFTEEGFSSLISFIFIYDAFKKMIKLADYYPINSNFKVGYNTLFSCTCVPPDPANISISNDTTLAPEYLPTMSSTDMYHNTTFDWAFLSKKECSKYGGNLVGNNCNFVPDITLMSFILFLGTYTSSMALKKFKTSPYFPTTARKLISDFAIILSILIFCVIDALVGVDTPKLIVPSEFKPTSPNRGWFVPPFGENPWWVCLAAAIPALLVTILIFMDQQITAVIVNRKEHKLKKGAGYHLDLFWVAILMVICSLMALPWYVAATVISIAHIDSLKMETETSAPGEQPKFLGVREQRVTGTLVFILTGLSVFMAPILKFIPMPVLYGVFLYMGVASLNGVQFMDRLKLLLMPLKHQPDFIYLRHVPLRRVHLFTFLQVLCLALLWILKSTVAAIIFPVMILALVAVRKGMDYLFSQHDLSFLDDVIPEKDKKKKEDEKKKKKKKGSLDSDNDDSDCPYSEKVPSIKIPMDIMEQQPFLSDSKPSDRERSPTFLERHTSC
Chain of NtNBCe1-A (cytoplasmic N-terminal domain of the electrogenic Na/HCO3 cotransporter NBCe1-A, SLC4A4) (UniProt Q9Y6R1+Q9Y6R1) (Q9Y6R1 whole entry, looked up, the tested form may be a part, one chain of several): as the sequence (Q9Y6R1 whole entry, the tested form may be a part) above

Consider “NtNBCe1-A (cytoplasmic N-terminal domain of the electrogenic Na/HCO3 cotransporter NBCe1-A, SLC4A4)”, for which the “average hydrodynamic radius (DLS)” value is 4.6 nm (theoretical 4.2 nm for pure dimers); monodisperse, Pd < 10% in data set [1] and “increase to 5.0 nm at neutral pH (theoretical 5.6 nm for pure tetramers), consistent with a small amount of dimer-dimer interactions” in data set [2]. In addition, the “average molar mass (MALS-SEC)” value in data set [3] is 42.6 kDa (theoretical monomer 40.6 kDa); monomer predominates.

B1: cytoplasmic, N-terminal domain of NBCe1-A (residues 1 to 362) (domain or fragment, human, UniProt Q9Y6R1-2 1-362, looked up)
chain: MSTENVEGKPSNLGERGRARSSTFLRVVQPMFNHSIFTSAVSPAAERIRFILGEEDDSPAPPQLFTELDELLAVDGQEMEWKETARWIKFEEKVEQGGERWSKPHVATLSLHSLFELRTCMEKGSIMLDREASSLPQLVEMIVDHQIETGLLKPELKDKVTYTLLRKHRHQTKKSNLRSLADIGKTVSSASRMFTNPDNGSPAMTHRNLTSSSLNDISDKPEKDQLKNKFMKKLPRDAEASNVLVGEVDFLDTPFIAFVRLQQAVMLGALTEVPVPTRFLFILLGPKGKAKSYHEIGRAIATLMSDEVFHDIAYKAKDRHDLIAGIDEFLDEVIVLPPGEWDPAIRIEPPKSLPSSDKRKNM
notes: NBCe1-A, sodium-bicarbonate cotransporter variant 1A (SLC4 family), cytoplasmic N-terminal domain, residues 1 to 362; theoretical mass of the monomer 40.6 kDa, of the dimer 81.2 kDa; Exists in a concentration- and pH-dependent equilibrium of monomer, dimer and higher-order clusters; also called NtNBCe1-A; NtNBCe1
As for B1, the “fold increase of high-order self-associations with bisulfite against none” value in data set [4] is ~2 fold. Besides, in data set [5], the “stoichiometry N” value came to 2.
